For assay [1], the target named is T1, SARS-COV-2 RBD extracellular domain expressed with a C-terminal mouse IgG2a Fc (SARS-CoV-2). In words: Biacore SPR, mAb captured on anti-hFc, 25 C. In general terms: SPR reads the build-up and loss of mass on a sensor chip optically.
Assay [2] concerns the target T1, SARS-COV-2 RBD extracellular domain …. Kind of assay: Biacore SPR, mAb captured on anti-hFc, 37 C.

Residue numbers refer to the chain shown, from its start.

B1: mAb14255 (antibody, V domains shown)
VH: QVQLQESGPGLVKPSETLSLTCTVSGGSISGYYWSWIRQPPGKGLDWIGYIYYRGNTNYNPSLKSRVTISVDTSNNQFSLKLSSVTAADTAVYYCARYGEGYGDASGYHFDYWGQGTLVTVSS
VL: QSALTQPASVSGSPGQSITISCTGTSSDVGSYNLVSWYQQHPGKAPKLMIYEDSKRPSGVANPFSGSKSGNTASLTISGLQAEDEADYYCSSYAGSSTWVFGGGTKLTVLG
Regarding B1, in assay [1], the Kd – broadly, the free concentration of one partner at which half of the binding sites on the other are occupied at equilibrium, for simple one-to-one binding – worked out at 0.0726 nM; the koff (commonly a measure of how fast the partners let go of each other) was found to be 0.000159 s⁻¹; the kon (commonly a measure of how fast the partners come together) came out at 2.19e+06 M⁻¹ s⁻¹; the t½ – broadly, the time in which the quantity being followed falls by half – was determined as 72.6 min. In assay [2], this molecule yielded a Kd of 0.118 nM, a koff of 0.00025 s⁻¹, a kon of 2.12e+06 M⁻¹ s⁻¹ and a t½ of 46.2 min.

B2: mAb14285 (antibody, V domains shown)
VH: QVQLVQSGAEVKKPGASVKVSCKASGYTFTGYFIHWVRQAPGQGLEWMGWISPISGGTNYAQKFQGRVTVTRDTSITTAYMELSRLTSDDTAVYHCAREGGTWKGDFDYWGQGTLVTVSS
VL: B1 VL with G30E, D53G, A61S, P63R
For the molecule B2, in assay [1], the Kd amounted to 0.0868 nM, the koff came out at 0.000502 s⁻¹, the kon was 5.78e+06 M⁻¹ s⁻¹ and the t½ was 23 min. In assay [2], binding was characterised by a dissociation constant (Kd) of 0.231 nM, the koff came to 0.00103 s⁻¹, the kon is 4.45e+06 M⁻¹ s⁻¹ and the t½ was 11.2 min.

B3: mAb14232 (antibody, V domains shown)
VH: QITLKESGPTLVKPTQTLTLTCTFSGFSLSASGVGVGWIRQPPGKALEWLALIYWDDDKRYSPSLKSRLTITKDTSKNQVVLTMTNMDPVDTATYYCAQHKVATIFDYWGQGTLVTVSS
VL: QSALTQPPSASGSPGQSVTISCTATSSDVGNYNYVSWYQQHPGKAPKLMIYEVTKRPSGVPDRFSGSKSGNTASLTVSGLQAEDEADYYCSSYAGSWGVFGGGTKLTVLG
In the case of B3, in assay [1], the Kd worked out at 0.878 nM, the koff is 0.00173 s⁻¹, the kon amounted to 1.97e+06 M⁻¹ s⁻¹ and the t½ was 6.7 min. Besides, in assay [2], the Kd was 0.893 nM, the koff is 0.00188 s⁻¹, the kon was determined as 2.1e+06 M⁻¹ s⁻¹ and the t½ came out at 6.1 min.

B4: mAb14280 (antibody, V domains shown)
VH: QVQLVQSGAEVKKPGASVRVSCKASGYTFTGNYIHWVRQAPGQGLEWMAWINPNSGGKNYAQKFQGRVTLTRDTSVNTAYMELSRLRSDDTAMYYCARDVNYNILTGPGGLWGQGTLVTVSS
VL: QSALTQPPSASGSPGQSVTISCTGTSSDVGGYNFVSWYQQHPGKAPKLMIYEVSKRPSGVPDRFSGSKSGNTASLTVSGLQAEDEADYYCSSYAGSNNFVFGTGTKVTVLG
In assay [1], B4 yielded a Kd of 0.123 nM, a koff of 0.00037 s⁻¹, an on-rate constant (kon) of 3.02e+06 M⁻¹ s⁻¹ and a t½ of 31.2 min. Further, in assay [2], the Kd was 0.264 nM, the koff stood at 0.000772 s⁻¹, the kon stood at 2.92e+06 M⁻¹ s⁻¹ and the t½ is 15 min.

B5: mAb14281 (antibody, V domains shown)
VH: QVQLVQSGADVKKPGASVKVSCKTSGYIFTGYYIHWVRQAPGQGLEWMGWINPNSGGTNSAQKFQGRVTMTRDTSISTVYMELSRLRSDDTAVYYCAKSNSFSVLDYNFDYWGQGTLVTVSS
VL: SSELTQDPAVSVALGQTVRITCQGDSLRSYYASWYQQKPGQAPVLVIYDKNNRPSGIPDRFSGSSSGNTASLTITGAQAEDEADYYCNSRDSSRNHLVVFGGGTKLTVLG
On to B5, for which, in assay [1], binding was put at a Kd of 0.146 nM, the koff was 0.000213 s⁻¹, the kon came to 1.46e+06 M⁻¹ s⁻¹ and the t½ was found to be 54.3 min. Also, in assay [2], the equilibrium dissociation constant (Kd) was found to be 0.271 nM, the koff was 0.000365 s⁻¹, the kon came to 1.34e+06 M⁻¹ s⁻¹ and the t½ worked out at 31.7 min.

B6: mAb14292 (antibody, V domains shown)
VH: EVQLVESGGGLVQPGGSLRLSCVASGFAFSTYEMNWVRQAPGKGLEWVSYISSSGSTIYYADSVKGRLTISRDNVKNSLYLQMNSLRVEDTAIYYCARDAIRNNDILTDPATFDPWGQGTLVTVSS
VL: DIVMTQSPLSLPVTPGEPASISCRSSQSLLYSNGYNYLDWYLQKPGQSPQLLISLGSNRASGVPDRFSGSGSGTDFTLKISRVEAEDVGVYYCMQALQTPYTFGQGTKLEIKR
In assay [1], B6 registered a Kd of 33.6 nM, a koff of 0.0351 s⁻¹, a kon of 1.04e+06 M⁻¹ s⁻¹ and a t½ of 0.3 min. In assay [2], this molecule registered a Kd of 34.6 nM, a koff of 0.0644 s⁻¹, an association rate constant (kon) of 1.86e+06 M⁻¹ s⁻¹ and a t½ of 0.2 min.

B7: mAb14282 (antibody, V domains shown)
VH: QVQLVQSGAEVKKPGASVKVSCKASGYIFTDHYMHWVRQAPGQGLEWMGWINPNSGATNYAQNFQGRVTMTRDTSIITVYMELSRLRSDDTAVYYCARDSSPYMIRYTMDVWGQGTTITVSS
VL: QSALTQPASVSGSPGQSITISCTGTSSDVGSYNLVSWYQQHPGKAPKLMIYELTKRPSGVSNRFSGSKSGNTASLTISGLQAEDEADYYCSSYRGSVTDVVFGGGTKLTVLG
In assay [1], B7 registered a Kd of 0.186 nM, a koff of 0.000403 s⁻¹, a kon of 2.17e+06 M⁻¹ s⁻¹ and a t½ of 28.7 min. Also, in assay [2], the Kd is 0.247 nM, the koff came out at 0.000546 s⁻¹, the on-rate (kon) came to 2.21e+06 M⁻¹ s⁻¹ and the t½ stood at 21.1 min.

B8: mAb14234 (antibody, V domains shown)
VH: QVQLVESGGGVVQPGRSLRLSCAASGFTFSSYGIHWVRQAPGKGLEWVAIIWYDGSEKYYADSVKGRFTISRDNSKNTLFLQMNSLEAEDTAVYYCARGPDLLTGYYNYFYYGMDVWGQGTTVTVSS
VL: QSVLTQPPSVSGAPGQRVTISCTGSSSNIGIGYDVHWYQQLPGTVPKLLIYGNTNRPSGVPDRFSGSKSGTSASLAITGLQAEDEADYYCQSYDSSLSSYVFGTGTKVTVLG
For B8, in assay [1], the affinity, expressed as Kd, was 0.119 nM; the koff is 0.000121 s⁻¹; the kon came out at 1.02e+06 M⁻¹ s⁻¹; the t½ was found to be 95.2 min. In assay [2], this molecule returned a Kd of 0.41 nM, a koff of 0.000402 s⁻¹, a kon of 980000 M⁻¹ s⁻¹ and a t½ of 28.8 min.

B9: mAb14256 (antibody, V domains shown)
VH: QVQLQESGPGLVKPSETLSLTCTVSGGSISSHYWSWIRQPPGKGLEWIGYIYYSGSSNYNPSLKSRVTISVDTSKNQFSLKLNSVTAADTAVYYCARHYDILTGFDWFDPWGQGTLVTVSS
VL: QSVLTQPPSVSGAPGQRVTISCTGSSSNIGTHYDVHWYQQLPGTAPKLLIYGNSNRPSGVPDRFSGSKSGTSASLAITGLQAEDEADYYCQSFDNSLTAPYVFGTGTKVTVLG
On to B9, for which, in assay [1], the Kd amounted to 0.0638 nM, the koff came out at 0.000181 s⁻¹, the kon is 2.84e+06 M⁻¹ s⁻¹ and the t½ was found to be 63.7 min. In assay [2], binding was put at a Kd of 0.267 nM, the koff was found to be 0.000473 s⁻¹, the kon is 1.78e+06 M⁻¹ s⁻¹ and the t½ stood at 24.4 min.

B10: mAb14257 (antibody, V domains shown)
VH: EVQLVESGGGLVQPGGSLRLSCAASGFTVSRSYMNWVRQAPGKGLEWVSVVFTGGTTKHTDSVKGRFTISRDNSMNTLYLQMNSLRPEDTAVYYCARVAIVETTGAFDIWGQGTMVTVSS
VL: QSVLTQPPSVSGAPGQRVTISCTGTSSNIGADFDVHWYQQFPGTAPKLLIYGHTNRPSGIPDRFSGSKSGTSASLAITGLQAEDEADYYCQSYDSSLSGSVVFGGGTKLTVLG
In the case of B10, in assay [1], the Kd was found to be 0.0907 nM, the koff turned out to be 0.000254 s⁻¹, the kon is 2.81e+06 M⁻¹ s⁻¹ and the t½ came to 45.4 min. In assay [2], this molecule showed a Kd of 0.121 nM, a koff of 0.000339 s⁻¹, a kon of 2.81e+06 M⁻¹ s⁻¹ and a t½ of 34.1 min.

B11: mAb15157 (antibody, V domains shown)
VH: EVQLVESGGALVQPGGSLRLSCAASGFPFTIYAMTWVRQAPGKGLEWVSVITGSGDSTYYADSVKGRFTISRDNSKNTLYLQMNSLRAEDTAVYYCVKTGEGFFYYYYGMDVWGQGTTVTVSS
VL: QSVLTQPPSVSAAPGQKVTISCSGSSSNIGNSYISWYQQLPGTAPKLLIYVNNKRPSGIPDRFSGSKSGTSATLGITGLQTGDEADYYCGTWDSSLSAGVFGSGTKVTVLG
B11: in assay [1], the Kd turned out to be 0.187 nM, the koff came to 6.67e-05 s⁻¹, the kon is 357000 M⁻¹ s⁻¹ and the t½ turned out to be 173 min. In assay [2], the affinity, expressed as Kd, was 0.116 nM; the koff amounted to 0.000107 s⁻¹; the kon came out at 922000 M⁻¹ s⁻¹; the t½ was 108 min.

B12: mAb14230 (antibody, V domains shown)
VH: EVQLVESGGGLIQPGRSLRLSCAASGFTFDDYAMHWVRQAPGKGLEWVSGISWNSVSIDYADSVKGRFTISRDNAKNSLYLQMTSLTVEDTALYYCAKAFGYETLTGSDYFAYWGPGTLVTVSS
VL: EIVLTQSPGTLSLSPGERATLSCRASQTVISTYLAWYQQKPGQSPRLLIYGASSRATGIPDRFSGSGSGTDFTLTISRLEPEDFAVYYCQQYGSSPQLTFGGGTKVEIKR
For the molecule B12, in assay [1], the Kd was found to be 0.142 nM, the koff amounted to 0.000286 s⁻¹, the kon was 2e+06 M⁻¹ s⁻¹ and the t½ was 40.5 min. Also, in assay [2], the Kd came to 0.268 nM, the koff was 0.00049 s⁻¹, the kon stood at 1.82e+06 M⁻¹ s⁻¹ and the t½ was 23.6 min.

B13: mAb15156 (antibody, V domains shown)
VH: QLQLQESGPGLVKSSETLSLTCTVSASITGSTYYWGWIRQPPGKGLEWIGSIYYSGTTYYKASLKSRVTISVDTSKNQFSLKLTSVTVADTAVYYCVSHLLGNYHKYGMDVWGQGTTVTVSS
VL: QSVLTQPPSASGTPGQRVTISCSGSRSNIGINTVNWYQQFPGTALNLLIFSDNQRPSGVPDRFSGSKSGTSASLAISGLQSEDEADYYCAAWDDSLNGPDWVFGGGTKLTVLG
In assay [1], B13 displayed a Kd of 0.0369 nM, a koff of 5.22e-05 s⁻¹, a kon of 1.41e+06 M⁻¹ s⁻¹ and a t½ of 221 min. In assay [2], this molecule displayed a dissociation constant Kd of 0.63 nM, a koff of 0.000112 s⁻¹, a kon of 178000 M⁻¹ s⁻¹ and a t½ of 103 min.

B14: mAb14286 (antibody, V domains shown)
VH: QVQLVQSGAEVKKPGASVKVSCKASGYTFTDYFIHWVRQAPGQGLEWMGWINPTSGGTNYAQKFRGRVTMTRDTSISTAYVELSRLRSDDTALYYCARDLPFYSDTKQFDYWGQGTLVTVSS
VL: QSALTQPASVSGYPGQSITISCTGTSSDVGGYNYVSWYQQHPGKAPKLMIFDVSNRPSGVSNRFSGSKSGNTASLTFSGLQAEDEADYYCSSYTSSSTLVFGGGTKLTVLG
For the molecule B14, in assay [1], the Kd came to 0.222 nM, the koff was 0.000655 s⁻¹, the kon was determined as 2.95e+06 M⁻¹ s⁻¹ and the t½ was found to be 17.6 min. In assay [2], this molecule returned a dissociation constant (Kd) of 0.18 nM, a koff of 0.000528 s⁻¹, a kon of 2.94e+06 M⁻¹ s⁻¹ and a t½ of 21.9 min.

The values are drawn from US20260069689A1 (Regeneron, published 2026).
